Assay results reported in patent US10272135B2, “Apolipoprotein O and fragments thereof for inducing apoptosis in a cancerous cell” (INSERM (INSTITUT NATIONAL DE LA SANTÉ ET DE LA RECHERCHE …, priority 2014, dated 2019).

Assays:
Assay type in all cases: cell-based
cardiac myoblasts [1] = experiment: Reactive oxygen species assessment (carboxy-DCFDA) in cardiac myoblasts; settings: ApoO cells vs control (FIG. 4D)
Excerpt: (§1) After ethical committee approval, all patients in this study gave written consent for sample collection and molecular analysis prior to inclusion. Patients were carefully selected by physicians from the Department of Cardiology, Toulouse University Hospital, prior to coronary by-pass surgery. Bioinformatics. Microarray expression data from human heart samples were downloaded from the GEO repository (GSE1145). This series consisted of 107 myocardial samples collected from patients undergoing cardiac transplantation whose failure arises from different etiologies (e.g. idiopathic dilated cardiomyopathy, ischemic cardiomyopathy, valvular cardiomyopathy, and hypertrophic cardiomyopathy) and from “normal” organ donors whose hearts cannot be used for transplants. Arrays were intensity normalized and hierarchical clustering (average group linkage, Pearson correlation, threshold r=0.8) was applied to identify groups of co-expressed genes. […] All ApoO sequences within the expression vectors were verified by DNA double strand sequencing using ABI PRISM®BigDye™ Terminator version 3.1 Ready reaction cycle sequencing kit (Life Technologies SAS, Villebon sur Yvette) and loaded on an ABI 3130XL DNA sequencing instrument (Life Technologies SAS, Villebon sur Yvette). […]

cytochrome C oxidase = experiment: Cytochrome C oxidase activity in cardiac myoblasts; settings: ApoO cells vs control
Excerpt: as §1

cardiac myoblasts [2] = experiment: Transmission electron microscopy of cardiac myoblasts; settings: ApoO cells
Excerpt: as §1

[3] = system: long-chain acyl-CoA synthetase (ACSL); experiment: Acyl-CoA synthetase activity in cardiac myoblasts; settings: ApoO cells vs control (FIG. 6C)
Excerpt: as §1

glioblastoma cells = experiment: Transmission electron microscopy of glioblastoma cells
Method: Transmission electron microscopy of control (left) and ApoO expressing (right) cells incubated overnight with 100 μM of palmitate (n=6). Black arrows indicate lipid droplets.
Transmission electron microscopy of control (left) and ApoO expressing (right) cells. Black arrows indicate blebs (n=3).

Bax = Bax mRNA levels in cardiac myoblasts; settings: ApoO cells vs control (FIG. 9f)
Excerpt: as §1

B1: ApoO: 198-amino acid apolipoprotein, SEQ ID NO: 1; tested by overexpression from expression vectors or transgene (protein, listed as Homo sapiens)
chain: MFKVIQRSVGPASLSLLTFKVYAAPKKDSPPKNSVKVDELSLYSVPEGQSKYVEEARSQLEESISQLRHYCEPYTTWCQETYSQTKPKMQSLVQWGLDSYDYLQNAPPGFFPRLGVIGFAGLIGLLLARGSKIKKLVYPPGFMGLAASLYYPQQAIVFAQVSGERLYDWGLRGYIVIEDLWKENFQKPGNVKNSPGTK
intracellular reactive oxygen species (ROS) (cardiac myoblasts [1]): increases
cytochrome C oxidase activity (cytochrome C oxidase): increase
plasma membrane morphology (TEM) (cardiac myoblasts [2]): formation of blebs
long-chain acyl-CoA synthetase (ACSL) activity [3]: strongly increased
apoptosis (membrane blebbing) (glioblastoma cells; cells which express ApoO vs cells which do not (FIG. 16)): apoptosis occurs
mitochondrial morphology (glioblastoma cells; expression or overexpression of ApoO in glioblastoma cells): development of abnormal mitochondria
lipid accumulation (glioblastoma cells; glioblastoma cells expressing ApoO, in the presence of palmitate (FIG. 15)): lipid accumulate
expression of Bax (Bax): increase
